The values below come from patent publication US12383631B2, “Immune antigen specific IL-18 immunocytokines and uses thereof” (Bright Peak Therapeutics AG, priority 2022, dated 2025).

The labels stand for the following.
T1: human IL-18 binding protein isoform a (IL-18BPa) (Homo sapiens, UniProt O95998)
T1 sequence (O95998 31-194): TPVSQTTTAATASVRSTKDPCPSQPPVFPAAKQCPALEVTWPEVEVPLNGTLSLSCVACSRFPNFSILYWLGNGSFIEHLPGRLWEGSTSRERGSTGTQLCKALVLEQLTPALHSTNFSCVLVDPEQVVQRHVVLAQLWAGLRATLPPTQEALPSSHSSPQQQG

B1: C143: IL-18 polypeptide: V11I, C38A, K53A, C76A, C127A (protein)
chain: YFGKLESKLSIIRNLNDQVLFIDQGNRPLFEDMTDSDARDNAPRTIFIISMYADSQPRGMAVTISVKCEKISTLSAENKIISFKEMNPPDNIKDTKSDIIFFQRSVPGHDNKMQFESSSYEGYFLAAEKERDLFKLILKKEDELGDRSIMFTVQNED
B2: C144: IL-18 polypeptide: V11I, C38A, K53A, T63A, C76A, C127A (protein)
chain: B1 chain with T63A
B3: C164: IL-18 polypeptide: V11I, C38A, S55H, C76A, C127A (protein)
chain: B1 chain with A53K, S55H
B4: C165: IL-18 polypeptide: V11I, C38A, S55R, C76A, C127A (protein)
chain: B1 chain with A53K, S55R
B5: C152: IL-18 polypeptide: V11I, S36A, C38A, K53A, C76A, C127A (protein)
chain: B1 chain with S36A
B6: C148: IL-18 polypeptide: F2A, V11I, C38A, K53A, C76A, C127A (protein)
chain: B1 chain with F2A
B7: C161: IL-18 polypeptide: K8R, V11I, C38A, C76A, Q103E, C127A (protein)
chain: B1 chain with K8R, A53K, Q103E
B8: C145: IL-18 polypeptide: V11I, C38A, K53A, S55A, C76A, C127A (protein)
chain: B1 chain with S55A
B9: C150: IL-18 polypeptide: V11I, T34A, C38A, K53A, C76A, C127A (protein)
chain: B1 chain with T34A
B10: C157: IL-18 polypeptide: V11I, C38A, K53A, C76A, C127A, D132A (protein)
chain: B1 chain with D132A
B11: C159: IL-18 polypeptide: V11I, C38A, K53A, C76A, H109A, C127A (protein)
chain: B1 chain with H109A
B12: C166: IL-18 polypeptide: V11I, C38A, S55T, C76A, C127A (protein)
chain: B1 chain with A53K, S55T
B13: C163: IL-18 polypeptide: V11I, C38A, C76A, Q103K, C127A (protein)
chain: B1 chain with A53K, Q103K
B14: C168: IL-18 polypeptide: V11I, C38A, C76A, S105K, C127A (protein)
chain: B1 chain with A53K, S105K
B15: C160: IL-18 polypeptide: V11I, C38A, K53A, C76A, D110A, C127A (protein)
chain: B1 chain with D110A
B16: C162: IL-18 polypeptide: K8E, V11I, C38A, C76A, Q103R, C127A (protein)
chain: B1 chain with K8E, A53K, Q103R
B17: C167: IL-18 polypeptide: V11I, C38A, C76A, S105I, C127A (protein)
chain: B1 chain with A53K, S105I
B18: C158: IL-18 polypeptide: V11I, C38A, K53A, C76A, G108A, C127A (protein)
chain: B1 chain with G108A
B19: C147: IL-18 polypeptide: V11I, C38A, K53A, D54A, C76A, C127A (protein)
chain: B1 chain with D54A
B20: SEQ ID NO: 68: IL-18 polypeptide: V11I, C38A, M51G, K53A, C76A, C127A (protein)
chain: B1 chain with M51G
B21: C156: IL-18 polypeptide: V11I, C38A, N41A, K53A, C76A, C127A (protein)
chain: B1 chain with N41A
B22: C155: IL-18 polypeptide: V11I, C38A, D40A, K53A, C76A, C127A (protein)
chain: B1 chain with D40A
B23: C151: IL-18 polypeptide: V11I, D35A, C38A, K53A, C76A, C127A (protein)
chain: B1 chain with D35A
B24: C149: IL-18 polypeptide: V11I, E31A, C38A, K53A, C76A, C127A (protein)
chain: B1 chain with E31A
B25: C154: IL-18 polypeptide: V11I, E31A, D37A, C38A, K53A, C76A, C127A (protein)
chain: B1 chain with E31A, D37A
B26: C153: IL-18 polypeptide: V11I, D37A, C38A, K53A, C76A, C127A (protein)
chain: B1 chain with D37A

Changes are numbered by the printed parent chain. Numbers in names are those of the source.

The assay addresses T1, human IL-18 binding protein isoform a (IL-18BPa). In words: IL-18 Binding Protein inhibition cellular assay in NK-92 cells (Example 4 / 17C). The class given is cell-based. Particulars: inhibition by IL-18BP of IFNγ stimulation in NK92 cells. As for the experimental part: The NK cell line NK-92 derived from a patient with lymphoma (ATCC® CRL-2407™) is cultured in aMEM medium supplemented with 20% FCS-Glutamax, 25 μM β-mercaptoethanol, and 100 IU/mL of recombinant human IL-2.
On the day of experiment, cells are harvested and washed with aMEM medium without IL-2 and containing 1 ng/mL of recombinant human IL-12. After counting, the cells are seeded at 100,000 cells/well in a 384 well titer plate and incubated at 37° C./5% CO2. Sixteen 2-fold serial dilutions of Fc-fused human IL-18 binding protein isoform a (IL-18BPa) are prepared in aMEM medium. 1 ng/mL of IL-12 containing 2 nM of each modified IL-18 polypeptide variant is added to the NK-92 cells. The final IL-18 analyte concentration is 1 nM, and the final IL-18BPa concentration ranged from 566 nM to 17 pM.
After incubating the cells for 16-20 hr at 37° C./5% CO2, 5 μL of the supernatant is carefully transferred to a 384 microwell OptiPlate. IFNγ levels are measured using a human IFNγ AlphaLISA Assay Kit. Briefly, 10 μL of 2.5× AlphaLISA anti-IFNγ acceptor beads and biotinylated antibody anti-IFNγ mix are added to 5 μL of NK-92 supernatants. The mixtures are incubated for 1 hr at room temperature with shaking. Under subdued light, 2.5 μL of 2×SA donor beads are pipetted in each well and incubated for 30 min at room temperature with shaking. AlphaLISA signals are then measured on an EnSpire™ plate reader using 680 nm and 615 nm as excitation and emission wavelengths, respectively. Half maximal inhibitory concentrations (IC50) are calculated based on a variable slope and four parameter analysis using GraphPad PRISM software.
17C—IFNγ Stimulation and IL-18BP Inhibition Assay—The experiments described in Example 4 for determination of IFNg stimulation in NK92 cells (and inhibition by IL-18 BP) were performed substantially as described on modified IL-18 polypeptides in order to assess their activities and their suitability for incorporation into immunocytokine compositions.
By IC50 is commonly meant the point on the concentration scale where inhibition reaches its midpoint. Turning to B1, the IC50 was 1.62 nM. On to B2, for which the IC50 turned out to be 7.52 nM. Molecule B3 displayed an IC50 of 0.456 nM. Molecule B4 showed an IC50 of 0.885 nM. Under B5 stands 7.85 nM.

As for B6, the IC50 was determined as 5.05 nM. This IC50 is about 1.6-fold lower than that of the molecule before. To B7 belongs 1.07 nM; to B8, 10.2 nM; to B9, 21.3 nM. B10 registered an IC50 of 6.08 nM. Against the preceding molecule, the IC50 is about 3.5-fold lower. To B11 belongs 1.81 nM; to B12, 0.44 nM; to B13, 0.823 nM. Under B14 stands 0.176 nM; under B15, 3.18 nM; under B16, 7.29 nM. Under B17 stands 0.809 nM. As to B18, the IC50 came out at 3.98 nM.

As for B19, the IC50 amounted to 47.6 nM.

B20 returned an IC50 of 733 nM. As for B21, the concentration for half-maximal inhibition (IC50) was 0.681 nM. To B22 belongs 3.23 nM; to B23, 3.62 nM; to B24, 1.17 nM. The molecule B25 gave an IC50 of 3.71 nM. Against the preceding molecule, the IC50 is about 3.2-fold higher.

As to B26, the IC50 was found to be 2.22 nM.
